# Measured values from IntAct's records for PubMed 17923090.
# Biological target: stat1_human STAT1 (UniProt P42224)
# Sequence (P42224 whole entry): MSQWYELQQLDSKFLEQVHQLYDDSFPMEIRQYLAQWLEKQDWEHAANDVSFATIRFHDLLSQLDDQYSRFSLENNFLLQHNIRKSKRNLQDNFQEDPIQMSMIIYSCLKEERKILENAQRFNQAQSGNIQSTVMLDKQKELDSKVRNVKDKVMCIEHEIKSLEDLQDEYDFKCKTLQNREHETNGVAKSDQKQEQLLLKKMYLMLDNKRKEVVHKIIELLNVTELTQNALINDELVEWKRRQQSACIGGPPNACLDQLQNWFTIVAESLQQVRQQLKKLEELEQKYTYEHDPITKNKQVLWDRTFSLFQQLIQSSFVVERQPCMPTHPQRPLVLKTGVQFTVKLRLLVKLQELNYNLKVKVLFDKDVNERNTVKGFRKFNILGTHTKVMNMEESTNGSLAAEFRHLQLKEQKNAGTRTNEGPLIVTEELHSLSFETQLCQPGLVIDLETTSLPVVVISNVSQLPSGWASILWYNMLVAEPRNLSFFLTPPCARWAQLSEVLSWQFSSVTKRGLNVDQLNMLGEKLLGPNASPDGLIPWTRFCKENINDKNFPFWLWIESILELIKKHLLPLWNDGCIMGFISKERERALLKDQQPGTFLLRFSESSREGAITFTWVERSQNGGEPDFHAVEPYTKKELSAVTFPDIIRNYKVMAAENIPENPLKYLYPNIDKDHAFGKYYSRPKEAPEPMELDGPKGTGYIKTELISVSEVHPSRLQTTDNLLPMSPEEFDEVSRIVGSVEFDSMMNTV
row,Substance,effect of a mutation on the interaction
1,"Signal transducer and activator of transcription 2 (Homo sapiens), P52630 K384R",decreasing interaction
2,"Signal transducer and activator of transcription 2 (Homo sapiens), P52630 K390R",increasing interaction
3,"Signal transducer and activator of transcription 2 (Homo sapiens), P52630 K415R",increasing interaction
4,"Signal transducer and activator of transcription 2 (Homo sapiens), P52630 K419R",decreasing interaction
